Source: patent US20030078221, “High affinity nucleic acid ligands of complement system proteins” (Gilead Sciences, Inc., published 2003)
Where a chain is given by its changes, count along the chain named.

How the values were obtained:
Complement C1q [1] = target: T1, Complement C1q (UniProt P02745;P02746;P02747 P02745:23-245,P02746:28-253,P02747:29-245); experiment: filter; MgPBS 37C; details: tags: Quidel; chain copies: 6
Method: (§1) Individual cloned DNA was T7 transcribed with α-[³²P]-ATP and the full length [³²P]-2′-NH₂-RNA or 2′-F-RNA was gel-purified (as above). RNA was suspended at approximately 5,000 cpm per 30 μL sample (<10 pM), and aliquots were incubated with various concentrations of C1q, C3 or C5 in MgPBS for 10 minutes at 37° C. Samples were then filtered through nitrocellulose, the filters washed with buffer and dried under an infrared lamp, and counted with addition of scintillation fluid (Ecoscint A, National Diagnostics, Atlanta, Ga.). A background sample of RNA alone was run in parallel. […] Filters were washed and counted.

Complement C1q [2] = target: T1, Complement C1q; experiment: FP; nitrocellulose filter binding, MgPBS 37C; details: tags: Quidel; chain copies: 6
Method: as §1

Complement C1q [3] = target: T1, Complement C1q; experiment: filter; above background at 0.1 and 0.5 nM C1q; details: tags: Quidel; chain copies: 6
Complement C1q [4] = target: T1, Complement C1q; experiment: filter; above background; SEQ 13 in listing differs from Table 2 near the 3' end; details: tags: Quidel; chain copies: 6
Complement C5 [5] = target: T2, Complement C5 (Homo sapiens, UniProt P01031;P01031 P01031:19-673,P01031:678-1676); experiment: filter; >10-fold over background at 100 and 10 nM C5; 2'-OMe interference; details: tags: Quidel
From the text: The partially substituted 2′-OMe oligonucleotides were 5′-[³²P] -kinase-labeled. […] The oligonucleotides were eluted from the protein, alkaline hydrolyzed and then run on a 20% acrylamide/7 M urea/TBE sequencing gel. On adjacent tracks were run oligonucleotides not selected with C5. Band intensities were quantitated with on an Instantlmager (Packard, Meriden, Conn.).

Complement C5 [6] = target: T2, Complement C5; experiment: filter; MgPBS 37C; details: tags: Quidel
Method: as §1
(§2) Sequences were grouped according to homology and function.

Complement C5 [7] = target: T2, Complement C5; experiment: filter; Group I affinities stated very similar; details: tags: Quidel
Method: as §1, §2

Complement C1q [8] = target: T1, Complement C1q; experiment: filter; above background; SEQ 20 in listing differs from Table 2; details: tags: Quidel; chain copies: 6
Complement C5 [9] = target: T2, Complement C5; experiment: filter; minimal binding truncate; details: tags: Quidel; stem-loop with UUU bulge
Method: as §1

Complement C1q [10] = target: T1, Complement C1q; experiment: filter; MgPBS 37C; SEQ 12 in listing differs from Table 2 near the 3' end; details: tags: Quidel; chain copies: 6
Method: as §1

Complement C5 [11] = target: T2, Complement C5; experiment: filter; details: tags: Quidel
Complement C5 [12] = target: T2, Complement C5; experiment: filter; reduced binding; details: tags: Quidel
Complement C5 [13] = target: T2, Complement C5; experiment: filter; Kd not given; details: tags: Quidel

T1 sequence (P02745 23-245, chain 1 of 3): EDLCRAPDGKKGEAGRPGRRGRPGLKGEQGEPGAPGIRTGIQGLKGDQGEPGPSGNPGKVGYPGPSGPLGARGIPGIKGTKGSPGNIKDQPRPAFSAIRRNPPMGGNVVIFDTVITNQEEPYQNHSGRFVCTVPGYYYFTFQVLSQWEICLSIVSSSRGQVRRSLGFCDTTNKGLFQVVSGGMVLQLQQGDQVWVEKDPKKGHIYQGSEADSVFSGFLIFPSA
T1 sequence (P02746 28-253, chain 2 of 3): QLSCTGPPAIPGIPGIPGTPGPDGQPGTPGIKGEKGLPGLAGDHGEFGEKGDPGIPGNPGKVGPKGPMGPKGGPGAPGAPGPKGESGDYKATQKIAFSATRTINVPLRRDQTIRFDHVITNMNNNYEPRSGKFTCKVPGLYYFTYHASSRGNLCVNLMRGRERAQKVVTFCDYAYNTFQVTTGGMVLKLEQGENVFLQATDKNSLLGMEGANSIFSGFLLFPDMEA
T1 sequence (P02747 29-245, chain 3 of 3): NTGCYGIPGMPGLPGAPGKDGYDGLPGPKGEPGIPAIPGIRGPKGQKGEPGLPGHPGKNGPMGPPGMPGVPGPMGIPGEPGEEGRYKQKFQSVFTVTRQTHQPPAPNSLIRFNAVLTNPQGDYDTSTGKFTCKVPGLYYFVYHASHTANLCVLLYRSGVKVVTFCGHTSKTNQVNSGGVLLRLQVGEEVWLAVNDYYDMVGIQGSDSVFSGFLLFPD

B1: C1q clone 45 (ssRNA)
RNA: GGGAGGACGAUGCGGUGGAGUGGAGGUAUACCGGCCGGUAGCGCAUCCCACUCGGGUCUGUGCUCAGACGACUCGCCCGA
modifications: 2'-NH2 pyrimidines
Q: For B1, which Kd (Complement C1q [1]) is on record?
A: The Kd was 1.38 nM.

B2: C1q clone 36 (ssRNA)
RNA: GGGAGGACGAUGCGGGAGGAGUGGAGGUAAACAAUAGGCCGGUAGCGACUCCCACUAACAGCCUCAGACGACUCGCCCGA
modifications: 2'-NH2 pyrimidines
Q: B2 was tested. Which Kd (Complement C1q [2]) did it give?
A: The Kd was 0.29 nM.

B3: C1q clone 12 (ssRNA)
RNA: B2 RNA with A17U, C39U, C55G, A60G
modifications: 2'-NH2 pyrimidines
Q: Does B3 bind (Complement C1q [3])?
A: Result: binds

B4: C1q clone 78 (ssRNA)
RNA: GGGAGGACGAUGCGGGUGGAGUGGAGGGUAAACAAUGGCUGGUGGCAUUCGGAAUCUCCCAACGUAGACGACUCGCCCGA
modifications: 2'-NH2 pyrimidines
Q: Does B4 bind (Complement C1q [4])?
A: Result: binds

Q: Does CGCCGCGGUCUCAGGCGCUGAGUCUGAGUUUACCUGCG (ssRNA, 2'-F pyrimidines; selected purines 50% 2'-OMe) [M3010] bind (Complement C5 [5])?
A: Result: binds

Q: Does CGCCGCGGUCUCGGGCGCUGAGUCUGAGUUUACCUGCG (ssRNA, 2'-F pyrimidines; selected purines 50% 2'-OMe) [M3020] bind (Complement C5 [5])?
A: Result: binds

Q: Does CGCCGCGGUCUCAGGCGCUGAGUCUGAGUUUACCUGCG (ssRNA, 2'-F pyrimidines; selected purines 50% 2'-OMe) [M3030] bind (Complement C5 [5])?
A: Result: binds

B5: F8 (ssRNA)
RNA: GGGAGGACGAUGCGGUCUCAUGCGCCGAGUGUGAGUUUACCUUCGUCAGACGACUCGCCCGA
modifications: 2'-F pyrimidines
Q: Which Kd (Complement C5 [6]) does the source give for B5 here?
A: The Kd was 30 nM.

B6: H1 (ssRNA)
RNA: B5 RNA with U18G, C19G, G31C, G33C, A34C
modifications: 2'-F pyrimidines
Q: Does B6 bind (Complement C5 [7])?
A: Result: binds

B7: G7 (ssRNA)
RNA: B5 RNA with C19G, A20C, G22A, C26U, U32G, G33C, A34U
modifications: 2'-F pyrimidines
Q: Does B7 bind (Complement C5 [7])?
A: Result: binds

B8: K7 (ssRNA)
RNA: B5 RNA with C25U, C40A, U43G
modifications: 2'-F pyrimidines
Q: Does B8 bind (Complement C5 [7])?
A: Result: binds

Q: Which Kd (Complement C5 [6]) does the source give for GGGAGGAGGAUCGGUGUUCAGCAUUCAGAUCUUCAGACGACUCGCCCGA (ssRNA, 2'-F pyrimidines) [E4c] here?
A: The Kd was 50 nM.

B9: C1q clone 43 (ssRNA)
RNA: GGGAGGACGAUGCGGUUUCUCGGCCAGUAGUUUGCGGGUGGAGUGGAGGUAUAUCUGCGUCCUCGCAGACGACUCGCCCGA
modifications: 2'-NH2 pyrimidines
Q: Does B9 bind (Complement C1q [3])?
A: Result: binds

B10: C1q clone 40 (ssRNA)
RNA: GGGAGGACGAUGCGGCUGGUAGCAUGUGCAUUGAUGGGAGGAGUGGAGGUCACCGUCAACCGUCAGACGACUCGCCCGA
modifications: 2'-NH2 pyrimidines
Q: Does B10 bind (Complement C1q [3])?
A: Result: binds

B11: C1q clone 67 (ssRNA)
RNA: GGGAGGACGAUGCGGCAGACGACUCGCCCGAGGGGAUCCCCCGGGCCUGCAGGAAUUCGAUAUCAGACGACUCGCCCGA
modifications: 2'-NH2 pyrimidines
Q: Does B11 bind (Complement C1q [8])?
A: Result: binds

B12: C1q clone 22 (ssRNA)
RNA: GGGAGGACGAUGCGGGCAUAGUGGGCAUCCCAGGGUUGCCUAACGGCAUCCGGGGUUGUUAUUGGCAGACGACUCGCCCGA
modifications: 2'-NH2 pyrimidines
Q: Does B12 bind (Complement C1q [3])?
A: Result: binds

B13: C9 (ssRNA)
RNA: GGGAGGACGAUGCGGUGAGCGUGUAAAACGGUUUCGAUAGAGCCUCAGACGACUCGCCCGA
modifications: 2'-F pyrimidines
Q: B13 was tested. Which Kd (Complement C5 [6]) did it give?
A: Its Kd is 45 nM.

B14: C1q clone 23c (ssRNA)
RNA: GGGAGGACGAUGCAAGUGGAGUGGAGGUAUAACGGCCGGUAGGCAUCCCACUCGGGCCUAGCUCAGACGACUCGCCCGA
modifications: 2'-NH2 pyrimidines
Q: Does B14 bind (Complement C1q [3])?
A: Result: binds

Q: Which Kd (Complement C5 [9]) does the source give for CGAUGCGGUCUCAUGCGUCGAGUGUGAGUUUACCUUCG (ssRNA, 2'-F pyrimidines) [C6 38mer truncate] here?
A: Its Kd is 20 nM.

B15: C1q clone 50 (ssRNA)
RNA: GGGAGGACGAUGCGGGUGGAGUGGAGGUAUAACGGCCGGUAGCGCAUCCCACUCGGGUCUGUGCUAGACGACUCGCCCGA
modifications: 2'-NH2 pyrimidines
Q: For B15, which Kd (Complement C1q [10]) is on record?
A: Its Kd is 0.979 nM.

B16: YL-14 (ssRNA)
RNA: GGGAGAUAAGAAUAAACGCUCAAGUACGACGCGGUCCCGUGCGUGGAGUGCGGGUUUACCUUCGUAUUCGACAGGAGGCUCACAACAGGC
modifications: 2'-F pyrimidines
Q: B16 was tested. Which Kd (Complement C5 [11]) did it give?
A: Its Kd is 25 nM.

B17: E5c/E11 (ssRNA)
RNA: GGGAGGACGAUGCGGUCCGGCGCGCUGAGUGCCGGUUAUCCUCGUCAGACGACUCGCCCGA
modifications: 2'-F pyrimidines
Q: For B17, which Kd (Complement C5 [6]) is on record?
A: The Kd was 60 nM.

B18: C1q clone 3 (ssRNA)
RNA: GGGAGGACGAUGCGGGAGGAGUGGAGGUAAACAAUAGGUCGGUAGCGACUCCCACUAACAGGCCUCAGACGACUCGCCCGA
modifications: 2'-NH2 pyrimidines
Q: Does B18 bind (Complement C1q [3])?
A: Result: binds

B19: C1q clone 47 (ssRNA)
RNA: GGGAGGACGAUGCGGGUGGAGCGGAGGUUUAUACGGCUGGUAGCUCGAGCUCCCUAACACGCGGUAGACGACUCGCCCGA
modifications: 2'-NH2 pyrimidines
Q: Does B19 bind (Complement C1q [3])?
A: Result: binds

B20: C1q clone 30 (ssRNA)
RNA: GGGAGGACGAUGCGGGUGGAGUGGGGAUCAUACGGCUGGUAGCACGAGCUCCCUAACAGCGGUCAGACGACUCGCCCGA
modifications: 2'-NH2 pyrimidines
Q: Does B20 bind (Complement C1q [3])?
A: Result: binds

B21: YL-79 (ssRNA)
RNA: GGGAGAUAAGAAUAAACGCUCAAGAACCACGCGGUCUCAGGCGUAGAGUCUGAGUUUACCUUGGUUUUCGACAGGAGGCUCACAACAGGC
modifications: 2'-F pyrimidines
Q: With B21 as the binder, how does the Kd (Complement C5 [11]) read?
A: Its Kd is 15 nM.

B22: YL-13 (ssRNA)
RNA: B21 RNA with A25G, C28G, A29C, U44C, A45U, U62G, G63C, U66C
modifications: 2'-F pyrimidines
Q: How did the Kd (Complement C5 [11]) turn out when B22 was run?
A: The Kd was 6 nM.

Q: GAUGCGGUCUCAUGCGUCGAGUGUGAGUUUACCUUC (ssRNA, 2'-F pyrimidines) [C6 36mer truncate] was tested. Which Kd (Complement C5 [12]) did it give?
A: Its Kd is 50 nM.

B23: C1q clone 14 (ssRNA)
RNA: GGGAGGACGAUGCGGCACCUCACCUCCAUAUUGCCGGUUAUCGCGUAGGGUGAGCCCAGACACGACAGACGACUCGCCCGA
modifications: 2'-NH2 pyrimidines
Q: How did the Kd (Complement C1q [1]) turn out when B23 was run?
A: Its Kd is 2.4 nM.

Q: Does GACGAUGCGGUCUCAUGCGUCGAGUGUGAGUUUACCUUCGUC (ssRNA, 2'-F pyrimidines) [C6 42mer truncate] bind (Complement C5 [13])?
A: Result: binds

B24: A6 (ssRNA)
RNA: GGGAGGACGAUGCGGUCCGGCGCGCUGAGUGCCGGUUUAUCCUCGUCAGACGACUCGCCCGA
modifications: 2'-F pyrimidines
Q: With B24 as the binder, how does the Kd (Complement C5 [6]) read?
A: Its Kd is 35 nM.

B25: YL-56 (ssRNA)
RNA: GGGAGAUAAGAAUAAACGCUCAAGGUACACGCGGUCUGACGCGCUGAGUGUCAGUUUACCUUGUACUUCGACAGGAGGCUCACAACAGGC
modifications: 2'-F pyrimidines
Q: How did the Kd (Complement C5 [11]) turn out when B25 was run?
A: The Kd was 12 nM.

B26: C1q clone 33 (ssRNA)
RNA: GGGAGGACGAUGCGGGUUGCUGGUAGCCUGAUGUGGGUGGAGUGAGUGGAGGGUUGAAAAAUGCAGACGACUCGCCCGA
modifications: 2'-NH2 pyrimidines
Q: How did the Kd (Complement C1q [1]) turn out when B26 was run?
A: Its Kd is 3.85 nM.
